From the RNAGym collection of RNA variant scans (doi:10.7554/elife.80360)

B1: HDV Ribozyme (parent)
chain: GGCCGGCAUGGUCCCAGCCUCCUCGCUGGCGCCGGCUGGGCAACAUUCCGAGGGGACCGUCCCCUCGGUAAUGGCGAAUGGGACCCA

Variants of: B1
Assay: self-cleavage, relative activity (ratio to wild type); higher = more cleavage; co-transcriptional

First: G53U U60C
Second: G28C G35C
The self-cleavage of the first is higher: 0.923 for the first, 0.0554 for the second.

First: A45G G82A
Second: C33A A56U
The self-cleavage of the first is lower: 0.415 for the first, 0.475 for the second.

First: C4U C24A
Second: C26G G34U
The self-cleavage of the first is lower: 0.0583 for the first, 0.525 for the second.

Compared with C49A G52A, C22U G68U is lower in self-cleavage: 0.739 for the first, 0.572 for the second.

First: C19U U65A
Second: A16C U69A
The self-cleavage of the first is lower: 0.0791 for the first, 0.767 for the second.

Compared with C21U G55U, G28A C85A is lower in self-cleavage: 0.17 for the first, 0.0369 for the second.

Compared with C13G G40A, C19A C30G is lower in self-cleavage: 0.119 for the first, 0.0437 for the second.

First: C13G G67C
Second: C36U A42U
The self-cleavage of the first is lower: 0.0665 for the first, 0.208 for the second.

Going from A45G G55C to C18U U23G, the self-cleavage falls from 1.04 to 0.383.

First: A16G C19U
Second: C19G A78G
The self-cleavage of the first is higher: 0.178 for the first, 0.0875 for the second.

Compared with C24G G59U, G11A C19A is lower in self-cleavage: 0.147 for the first, 0.0811 for the second.

Going from U12G U60G to A51C G54U, the self-cleavage falls from 0.831 to 0.659.

Compared with C21A C86G, C32A G40U is higher in self-cleavage: 0.111 for the first, 0.22 for the second.

First: U20A
Second: G31A C85A
The self-cleavage of the first is lower: 0.0723 for the first, 0.415 for the second.

Compared with G39U C66U, U37G U72G is lower in self-cleavage: 0.724 for the first, 0.115 for the second.

First: G39U G82A
Second: G55U C84G
The self-cleavage of the first is lower: 0.27 for the first, 0.546 for the second.

Going from G50U A78G to C14A C75G, the self-cleavage falls from 0.776 to 0.256.

Going from C7A C22G to U46A C62U, the self-cleavage rises from 0.0791 to 0.712.

Going from G28U G80C to A8C G29C, the self-cleavage falls from 0.0639 to 0.

First: G31C C48U
Second: C57G U69G
The self-cleavage of the first is lower: 0.475 for the first, 1.2 for the second.

Going from G5C C15A to C19U G82U, the self-cleavage falls from 0.262 to 0.0702.

Compared with G1U U12C, U46G A78C is lower in self-cleavage: 0.499 for the first, 0.277 for the second.

Going from C41U G73U to C66U G74C, the self-cleavage falls from 0.511 to 0.363.

First: U46A G50U
Second: G50A G52C
The self-cleavage of the first is higher: 0.73 for the first, 0.672 for the second.

Going from U47C A77U to C21U A70U, the self-cleavage falls from 0.285 to 0.228.

First: C19A A42U
Second: C3G C86A
The self-cleavage of the first is lower: 0.0216 for the first, 0.876 for the second.

Compared with C19U G28C, U46A C57U is higher in self-cleavage: 0.0875 for the first, 0.657 for the second.

First: G25C U37G
Second: U46G G76C
The self-cleavage of the first is lower: 0.0519 for the first, 0.95 for the second.

Going from C26G C32G to C4G C15U, the self-cleavage rises from 0.203 to 0.277.

Going from C7U G52C to G31A A43G, the self-cleavage falls from 0.849 to 0.0386.

Compared with G39U G54A, C22G G54C is lower in self-cleavage: 0.59 for the first, 0.0277 for the second.

Compared with C61A C63U, G29C G34A is lower in self-cleavage: 1.07 for the first, 0 for the second.

Compared with G29U C75A, U12G C61G is higher in self-cleavage: 0.0639 for the first, 0.798 for the second.

First: G35C G38A
Second: U37C G40C
The self-cleavage of the first is lower: 0.155 for the first, 0.262 for the second.

Compared with C7G G50U, C13A G76U is higher in self-cleavage: 0.237 for the first, 0.317 for the second.

First: C32G G40A
Second: U20A C57G
The self-cleavage of the first is higher: 0.0831 for the first, 0 for the second.

Going from G40C G67C to G1C A87U, the self-cleavage falls from 0.439 to 0.104.

C15A U46C and C41A U72C are the same in self-cleavage: 0.653 for the first, 0.653 for the second.

First: C33A G76A
Second: C7A G38U
The self-cleavage of the first is higher: 0.228 for the first, 0.0346 for the second.

Going from C14G A77C to G2C C64U, the self-cleavage rises from 0 to 0.0219.

Compared with U12A U60A, C15G C24G is lower in self-cleavage: 0.453 for the first, 0.196 for the second.

Compared with G25U C44G, G31U G81A is lower in self-cleavage: 0.249 for the first, 0.162 for the second.
